For one protein, SPECIFIC ACTIVITY (CPM/µg TOTAL PROTEIN), protein kinase assay (CPM/µg total protein) and SPECIFIC ACTIVITY (CPM/µg TOTAL PROTEIN), protein kinase assay, mean (CPM/µg total protein) results are on record in patent US20090069239.

Where “and” joins values, the source holds several entries; their conditions need not be identical. Equal values may be shown once.

The target of this data set is protamine.

B1: iridoptin (37-kDa polypeptide expressed from the subgenic istk fragment of Chilo iridescent virus, 6xHis-tagged, Pichia-expressed) (protein)
chain: MDLKDEFIQIIKKYSELSLKESENETKKYIQEVFNVSLSEVFIKEPSKQETLKQEPTQETGCIYIFKKGKNIGQKCGSGKSKFCYKHKKNDLNIKVNQERNIKKPIPKPIPTNKIETGSVINQNWFIGTSIGKGGFGEIYSAAKFNDHGNYKDDDFSFAIKIEPKSGPLFVEMHFYKRVIVEKEIEKFKLQKNIQYLGLPKYYGSGLYNDYRYIVMEKYDSNIDKLFRNGDLNSSTILQIGIQILNIVEYIHSKGYIHADIKGENILLKENDTSHIYLVDFGLCSRYSNG
B1: the SPECIFIC ACTIVITY (CPM/µg TOTAL PROTEIN), protein kinase assay (CPM/µg total protein) is 1110 and 895; the SPECIFIC ACTIVITY (CPM/µg TOTAL PROTEIN), protein kinase assay, mean (CPM/µg total protein) was 1000.
